Test results taken from paper PMC4434323.

What was measured:
[1] = target: T1, nhr-204 (R02C2.4) (Caenorhabditis elegans) (UniProt O44543)
T1 sequence: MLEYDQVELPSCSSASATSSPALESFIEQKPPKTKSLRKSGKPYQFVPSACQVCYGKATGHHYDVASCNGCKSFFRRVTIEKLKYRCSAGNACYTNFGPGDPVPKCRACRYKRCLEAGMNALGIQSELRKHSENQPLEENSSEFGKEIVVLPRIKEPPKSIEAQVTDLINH

[2] = target: nhr-34 (F58G6.5) (Caenorhabditis elegans) (UniProt Q21006)
[3] = tested on: T2, nhr-216 (T09D3.4) (Caenorhabditis elegans)
T2 sequence: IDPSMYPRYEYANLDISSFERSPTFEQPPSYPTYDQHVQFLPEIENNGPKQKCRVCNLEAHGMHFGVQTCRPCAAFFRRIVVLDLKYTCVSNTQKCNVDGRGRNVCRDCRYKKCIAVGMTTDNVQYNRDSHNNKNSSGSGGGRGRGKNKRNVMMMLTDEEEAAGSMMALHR

[4] = target: T3, nhr-66 (T09A12.4) (Caenorhabditis elegans) (UniProt H2KYJ8)
T3 sequence: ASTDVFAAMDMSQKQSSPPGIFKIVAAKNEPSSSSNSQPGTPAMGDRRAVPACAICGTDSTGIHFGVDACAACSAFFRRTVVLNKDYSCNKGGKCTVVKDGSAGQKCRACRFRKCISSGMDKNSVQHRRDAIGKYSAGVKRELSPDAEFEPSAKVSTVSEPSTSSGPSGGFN

[5] = target: T4, nhr-1 (R09G11.2) (Caenorhabditis elegans) (UniProt Q21878)
T4 sequence: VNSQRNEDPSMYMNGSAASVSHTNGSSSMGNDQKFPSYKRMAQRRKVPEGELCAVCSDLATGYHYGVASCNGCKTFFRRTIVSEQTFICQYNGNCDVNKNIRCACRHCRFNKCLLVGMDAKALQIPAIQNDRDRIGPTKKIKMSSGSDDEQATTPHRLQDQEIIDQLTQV

[6] = target: T5, nhr-3 (H01A20.1) (Caenorhabditis elegans) (UniProt Q9XTJ4)
T5 sequence: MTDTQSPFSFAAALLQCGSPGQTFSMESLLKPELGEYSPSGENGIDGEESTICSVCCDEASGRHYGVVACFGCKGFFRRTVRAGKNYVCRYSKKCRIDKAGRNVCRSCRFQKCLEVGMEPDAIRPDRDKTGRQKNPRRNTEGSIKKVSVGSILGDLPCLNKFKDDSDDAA

[7] = target: T6, nhr-46 (C45E5.6) (Caenorhabditis elegans) (UniProt Q95QR2)
T6 sequence: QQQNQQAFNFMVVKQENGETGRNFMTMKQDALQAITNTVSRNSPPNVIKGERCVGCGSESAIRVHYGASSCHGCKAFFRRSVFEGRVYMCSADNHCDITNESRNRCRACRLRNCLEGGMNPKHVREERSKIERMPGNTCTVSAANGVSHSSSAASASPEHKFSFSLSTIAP

[8] = target: T7, atf-5 (T04C10.4) (Caenorhabditis elegans) (UniProt Q22156)
T7 sequence: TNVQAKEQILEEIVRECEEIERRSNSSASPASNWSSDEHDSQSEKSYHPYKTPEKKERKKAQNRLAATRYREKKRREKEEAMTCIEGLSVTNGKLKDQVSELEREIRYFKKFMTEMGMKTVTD

[9] = target: T8, end-1 (F58E10.2) (Caenorhabditis elegans) (UniProt G5EDN4)
T8 sequence: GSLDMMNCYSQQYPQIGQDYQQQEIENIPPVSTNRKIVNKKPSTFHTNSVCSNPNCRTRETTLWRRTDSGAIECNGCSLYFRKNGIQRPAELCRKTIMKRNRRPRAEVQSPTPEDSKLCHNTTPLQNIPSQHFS

[10] = target: T9, ceh-34 (C10G8.6) (Caenorhabditis elegans) (UniProt Q94165)
T9 sequence: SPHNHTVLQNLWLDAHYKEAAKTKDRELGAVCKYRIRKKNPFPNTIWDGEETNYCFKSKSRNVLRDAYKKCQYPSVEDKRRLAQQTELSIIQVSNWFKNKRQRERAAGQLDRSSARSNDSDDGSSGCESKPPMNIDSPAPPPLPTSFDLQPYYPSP

[11] = target: T10, atf-6 (F45E6.2) (Caenorhabditis elegans) (UniProt Q20435)
T10 sequence: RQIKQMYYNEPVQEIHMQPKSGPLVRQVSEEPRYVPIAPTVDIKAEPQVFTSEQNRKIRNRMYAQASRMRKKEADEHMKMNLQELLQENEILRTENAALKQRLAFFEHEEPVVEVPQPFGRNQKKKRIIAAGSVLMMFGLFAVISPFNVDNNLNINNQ

nhr-34 (F58G6.5) (Caenorhabditis elegans), sequence (Q21006 99-268): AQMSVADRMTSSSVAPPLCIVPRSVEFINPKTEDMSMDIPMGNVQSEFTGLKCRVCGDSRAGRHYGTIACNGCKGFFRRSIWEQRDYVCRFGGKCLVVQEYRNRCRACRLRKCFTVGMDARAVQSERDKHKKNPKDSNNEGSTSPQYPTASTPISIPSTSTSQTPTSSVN

In the case of “TTGATCAA (double strand) [8-mer TTGATCAA]”, the binding signal (PBM E-score (-0.5 to 0.5)) [1] is reported as 0.493 and the binding signal (PBM E-score (-0.5 to 0.5)) [2] is reported as 0.481.

“AATCAGAA (double strand) [8-mer AATCAGAA]” was tested, and the binding signal (PBM E-score (-0.5 to 0.5)) [3] was 0.497.

“ACTACACA (double strand) [8-mer ACTACACA]” was tested, and the binding signal (PBM E-score (-0.5 to 0.5)) [4] was 0.484.

With “AAACTACA (double strand) [8-mer AAACTACA]” the binding signal (PBM E-score (-0.5 to 0.5)) [4] was 0.484.

With “AGCGATCA (double strand) [8-mer AGCGATCA]” the binding signal (PBM E-score (-0.5 to 0.5)) [5] was 0.476.

Work on “ATTGATCA (double strand) [8-mer ATTGATCA]” yielded a binding signal (PBM E-score (-0.5 to 0.5)) [1] of 0.489 and a binding signal (PBM E-score (-0.5 to 0.5)) [5] of 0.479.

For “AATTGGTC (double strand) [8-mer AATTGGTC]”, the binding signal (PBM E-score (-0.5 to 0.5)) [1] was 0.484.

Work on “GTTGATCA (double strand) [8-mer GTTGATCA]” yielded a binding signal (PBM E-score (-0.5 to 0.5)) [1] of 0.482 and a binding signal (PBM E-score (-0.5 to 0.5)) [5] of 0.477.

Sequence “TAAGATCA (double strand) [8-mer TAAGATCA]” has a binding signal (PBM E-score (-0.5 to 0.5)) [6] of 0.477 and a binding signal (PBM E-score (-0.5 to 0.5)) [7] of 0.474.

With “TCTGACCA (double strand) [8-mer TCTGACCA]” the binding signal (PBM E-score (-0.5 to 0.5)) [3] was 0.491.

In the case of “ACTACACG (double strand) [8-mer ACTACACG]”, the binding signal (PBM E-score (-0.5 to 0.5)) [4] is reported as 0.481.

Work on “CAACTACA (double strand) [8-mer CAACTACA]” yielded a binding signal (PBM E-score (-0.5 to 0.5)) [4] of 0.484.

Work on “GAGATCAA (double strand) [8-mer GAGATCAA]” yielded a binding signal (PBM E-score (-0.5 to 0.5)) [2] of 0.491, a binding signal (PBM E-score (-0.5 to 0.5)) [6] of 0.46 and a binding signal (PBM E-score (-0.5 to 0.5)) [7] of 0.495.

Sequence “CTTCTGAC (double strand) [8-mer CTTCTGAC]” has a binding signal (PBM E-score (-0.5 to 0.5)) [3] of 0.498.

For “TGATATCA (double strand) [8-mer TGATATCA]”, the binding signal (PBM E-score (-0.5 to 0.5)) [8] was 0.474, the binding signal (PBM E-score (-0.5 to 0.5)) [9] was 0.493 and the binding signal (PBM E-score (-0.5 to 0.5)) [10] was 0.483.

In the case of “AGGGATCA (double strand) [8-mer AGGGATCA]”, the binding signal (PBM E-score (-0.5 to 0.5)) [5] is reported as 0.479.

In the case of “ATCAGAAG (double strand) [8-mer ATCAGAAG]”, the binding signal (PBM E-score (-0.5 to 0.5)) [3] is reported as 0.494.

Sequence “CGTCAGAA (double strand) [8-mer CGTCAGAA]” has a binding signal (PBM E-score (-0.5 to 0.5)) [3] of 0.493.

In the case of “TCTGATCA (double strand) [8-mer TCTGATCA]”, the binding signal (PBM E-score (-0.5 to 0.5)) [1] is reported as 0.482.

Work on “CTGATCAA (double strand) [8-mer CTGATCAA]” yielded a binding signal (PBM E-score (-0.5 to 0.5)) [1] of 0.481.

For “AAGATCAG (double strand) [8-mer AAGATCAG]”, the binding signal (PBM E-score (-0.5 to 0.5)) [2] was 0.47 and the binding signal (PBM E-score (-0.5 to 0.5)) [6] was 0.466.

“GATCAGAA (double strand) [8-mer GATCAGAA]” was tested, and the binding signal (PBM E-score (-0.5 to 0.5)) [3] was 0.497.

Sequence “ATGATCAT (double strand) [8-mer ATGATCAT]” has a binding signal (PBM E-score (-0.5 to 0.5)) [5] of 0.476.

In the case of “ATGATCAC (double strand) [8-mer ATGATCAC]”, the binding signal (PBM E-score (-0.5 to 0.5)) [5] is reported as 0.486.

“ACGTCAGC (double strand) [8-mer ACGTCAGC]” gave a binding signal (PBM E-score (-0.5 to 0.5)) [8] of 0.491 and a binding signal (PBM E-score (-0.5 to 0.5)) [11] of 0.469.

Sequence “AGGTCAAC (double strand) [8-mer AGGTCAAC]” has a binding signal (PBM E-score (-0.5 to 0.5)) [6] of 0.465.

For “CGTCATCC (double strand) [8-mer CGTCATCC]”, the binding signal (PBM E-score (-0.5 to 0.5)) [8] was 0.487.

With “GTGATCAC (double strand) [8-mer GTGATCAC]” the binding signal (PBM E-score (-0.5 to 0.5)) [5] was 0.489.

In the case of “AGACCAAT (double strand) [8-mer AGACCAAT]”, the binding signal (PBM E-score (-0.5 to 0.5)) [1] is reported as 0.486.

Work on “GAAGATCA (double strand) [8-mer GAAGATCA]” yielded a binding signal (PBM E-score (-0.5 to 0.5)) [2] of 0.466 and a binding signal (PBM E-score (-0.5 to 0.5)) [7] of 0.466.

With “CGTCAGCA (double strand) [8-mer CGTCAGCA]” the binding signal (PBM E-score (-0.5 to 0.5)) [8] was 0.457.
